{"source": "patent US11311610B2", "about": "“Immune-modulating agents and uses therefor” (UNIVERSITY OF TECHNOLOGY SYDNEY, priority 2010, dated 2022)", "molecules": {"B1": {"name": "FhHDM-1: 90-residue polypeptide from F. hepatica, Helminth Defense Molecule-1 (SEQ ID NO:24); recombinant form minus N-terminal signal peptide, expressed in E. coli (protein, listed as Fasciola hepatica)", "chain": "MRFIVLLCLAEVLLAAYVEARPSEESREKLRESGRKMVKALRDAVTKAYEKARDRAMAYLAKDNLGEKITEVITILLNRLTDRLEKYAGN"}}, "key": {"[1]": {"system": "immune cell invasion of pancreatic islets", "test": "Insulitis in NOD mouse model of type 1 diabetes", "type": "in vivo", "details": "NOD mice, 6 injections every second day from 5 weeks, sacrificed at 10 weeks", "description": "Non-obese diabetic (NOD) mice (model of Type 1 diabetes) were given 6 injections (on every second day) of proteinaceous compound beginning at 5 weeks of age and animals were sacrificed at 10 weeks of age (i.e. when insulitis develops). Subsequently, formalin-fixed, paraffin-embedded pancreata was stained with haematoxylin and eosin to assess islet inflammation (i.e., insulitis).\nIslet insulitis was scored as 0 (healthy islet), 1 (peri-insulitis up to 25% of islet occupied by leukocytes), 2 (leukocytic infiltration from 25% up to 50% of islet mass), 3 (leukocytic infiltration from 50% up to 75% of islet mass) or 4 (less than 25% of islet mass present). Accordingly, the greater the percentage of islets with higher insulitis scores the worse the prognosis for diabetes development would be for that animal."}, "[2]": {"system": "ATPase activity associated with lysosomal membranes (equivalent to vATPase activity)", "test": "ATPase activity of enriched lysosomal membranes", "type": "biochemical, murine", "details": "lysosomal membranes from RAW264.7 macrophage lysates", "method": "FIG. 17 is a graphical representation showing that FhHDM-1 P3 inhibits ATPase activity associated with lysosomal membranes in a concentration-dependent manner. A cellular fraction enriched for lysosomes was prepared by sequential centrifugation of RAW264.7 macrophage lysates. The lysosomal membranes were recovered and assayed (with or without HDM peptides) for ATPase activity using a commercially available kit.\nFIG. 18 is a diagrammatic representation showing a sequence alignment of various synthetic HDM peptides. The amphipathic helix is shaded in grey as are the mutated residues in peptides nonHP and 2Pro. NonHP is a variant of FhHDM-1 P3 in which the hydrophobic face of the FhHDM-1 amphipathic helix was removed. 2Pro is a variant of FhHDM-1 P3 in which two prolines substitutions were incorporated to disrupt the alpha-helix. Cons_p3 is a consensus peptide corresponding to various FhHDM-1 homologs. All peptides in the alignment were tested for their ability to inhibit the ATPase activity associated with enriched lysosomal membranes (prepared from RAW macrophages). Those with inhibitory activity are shown in bold text.\nA cellular fraction enriched for lysosomes was prepared by sequential centrifugation of RAW264.7 macrophage lysates. The lysosome pellet was extracted with water and the resulting lysosomal membranes were recovered and assayed (with or without HDM peptides) for ATPase activity using a commercially available kit."}, "NOD mice": {"system": "NOD mice", "test": "Diabetes development in NOD mice (blood glucose)", "type": "in vivo", "method": "FIG. 13 is a graphical representation showing that FhHDM-1 protects NOD mice from developing diabetes. FhHDM-1 was given to female NOD mice aged 4 weeks. 10 μg of FhHDM-1 was delivered i.p. in PBS on alternate days for a total of 6 doses. Blood glucose readings were taken weekly and mice with two consecutive readings >14 mmol/L were deemed diabetic.\nFemale NOD mice (n=10) were given recombinant HDM (10 μg in 100 μL sterile PBS) by intraperitoneal (i.p.) injection on alternate days beginning at 4 weeks of age for a total of 6 injections. Control mice were given 100 μL of sterile PBS on the same days. Blood glucose levels were measured once a week, from the age of 13 weeks, using Accu-check Advantage blood glucose strips (Roche). Animals were sacrificed when they became overtly diabetic; as defined by two random blood glucose concentrations above 12 mM. Statistical analysis of the times the animal was sacrificed was performed using survival analysis."}, "[3]": {"system": "inflammatory response to bacterial lipopolysaccharide", "test": "Inflammatory response to LPS in vivo after HDM pre-treatment", "details": "BALB/c mice, 1 μg i.p. 2 h before 1 μg LPS, 4 h later", "method": "Female BALB/c mice were given 1 μg of FhHDM-1 i.p. and 2 h later given 1 μg of E. coli LPS i.p. After another 4 h, mice were sacrificed and serum and peritoneal macrophages assessed for the presence of inflammatory cytokines.\nFemale BALB/c mice (n=5) were given a single intraperitoneal injection of 1 μg of recombinant HDM two hours prior to an intraperitoneal injection of 1 μg of E. coli lipopolysaccharide. Four hours later, mice were sacrificed and blood and peritoneal cells were harvested. Peritoneal macrophages were isolated from lavage fluid based upon their adherent properties, and cultured overnight at 37° C. in RPMI supplemented with FCS. The quantities of inflammatory cytokines in both sera and culture media from macrophages were measured by ELISA."}}}
{"molecule": "KARDRAMAYLAKDNLGEKITEVITILLNRL (FhHDM-1 peptide 1 comprising a truncated amphipathic helix contained in FhHDM-1) [FhHDM-1 p1, peptide in which the amphipathic helix is truncated]", "values": [{"measurement": "immune cell invasion of pancreatic islets (insulitis)", "setting": "[1]", "result": "no significant activity"}, {"measurement": "ATPase activity associated with lysosomal membranes", "setting": "[2]", "result": "did not inhibit ATPase activity"}]}
{"molecule": "B1", "values": [{"measurement": "further time the level of protection was sustained", "setting": "NOD mice; after 18 weeks of age", "result": 7, "unit": "weeks"}, {"measurement": "normoglycaemic mice", "setting": "NOD mice; female NOD mice, 10 μg i.p. alternate days x6 from 4 weeks, at 18 weeks of age", "result": 80, "unit": "%"}, {"measurement": "IL-12 secreted by peritoneal macrophages", "setting": "[3]", "result": "significantly less"}, {"measurement": "TNFα secreted by peritoneal macrophages", "setting": "[3]", "result": "significantly less"}, {"measurement": "levels of IL-10 in circulation", "setting": "[3]", "result": "significantly reduced"}, {"measurement": "quantity of TNFα in sera", "setting": "[3]", "result": "also reduced this did not reach significance"}, {"measurement": "ATPase activity associated with lysosomal membranes", "setting": "[2]", "result": "did not inhibit ATPase activity"}]}
